The target of data set [1] is T1, CspL (Bacillus coagulans 2-6, UniProt A0A0C5C4D7 1-67). The experiment in a line: BLI; BLI, streptavidin sensor with 5'-biotin oligo; 20 mM PBS pH 7.4, 100 mM NaCl, 0.1% BSA, 0.02% Tween 20; CspL 20 ug/ml; temperature not in the material. The following applies: protein: recombinant, tags: His, label: 5'-biotin. On the technique in general: Biolayer interferometry detects binding as a change in optical thickness at a sensor tip.

For data set [2], the target named is T1, CspL. Kind of data set: BLI; 2100, 210 nM CspL; binding lost at 21 nM; BLI, streptavidin sensor with 5'-biotin oligo; 20 mM PBS pH 7.4, 100 mM NaCl, 0.1% BSA, 0.02% Tween 20; CspL 20 ug/ml; temperature not in the material. The following applies: protein: recombinant; tags: His; label: 5'-biotin.

B1: ssDNA gaaC (ssDNA)
DNA: CCGCAGAGAACGACGAGAGC
Consider B1, for which the binding result in data set [1] is “binds”.

B2: ssDNA random (ssDNA)
DNA: CCGCAGATCCAGACGAGAGC
Turning to B2, the binding result in data set [1] was “binds”.

B3: 18 nt ssDNA (ssDNA 5) (ssDNA)
DNA: GAGACCGGAATTCGAGCT
In the case of B3, in data set [2], the binding result is listed as “binds”.

B4: dsDNA random (dsDNA)
DNA 1: CCGCAGATCCAGACGAGAGC
DNA 2: GCTCTCGTCTGGATCTGCGG
For the molecule B4, the binding result in data set [1] (blunt) was “no binding”.

B5: dsDNA gaaC (dsDNA)
DNA 1: CCGCAGAGAACGACGAGAGC
DNA 2: GCTCTCGTCGTTCTCTGCGG
With B5, in data set [1] (blunt), the binding result is reported as “no binding”.

For the origin of these results see paper PMC7966797, “A cold shock protein promotes high-temperature microbial growth through binding to diverse RNA species”.
